Results from patent publication US20150232562A1 (Ablynx, published 2015).
Changes are numbered by the printed parent chain. Values belong to the binder of their own block, whether it stands above or below them.

Experiments:
[1] = target: T1, Epidermal Growth Factor Receptor 2 (HER2) (human, UniProt P04626 23-1255); assay: FMAT competition on SKBR3 cells, periplasmic extract
T1 construct: whole, on cells; the cell line is named under assay; also called ErbB-2; ERBB2

[2] = target: T2, recombinant human ErbB2/Fc chimera (human, UniProt P04626 23-652); assay: ELISA, coated ErbB2/Fc
T2 construct: bought from R&D Systems; also called rhErbB2-Fc; rhErb2-Fc; Fc part of the bought chimera not given; not described

- % blocking of Herceptin binding [1]: > 90%
B1: 2E5 (VHH)
VHH: EVQLVESGGSLVQPGESLRLSCAASGFTFDDYAMSWVRQAPGKGLEWISSINWSGTHTDYADSVKGRFTISRNNANNTLYLQMNNLKFEDTAVYYCAKNWRDAGTTWFEKSGSAGQGTQVTVSS
notes: C-term myc-His6 tag

- % blocking of Herceptin binding [1]: > 90%
B2: 30H9 (VHH)
VHH: B1 VHH with E16G, S35T, I48V, A61T, N85S, F88S, R101G
notes: C-term myc-His6 tag

- % blocking of Herceptin binding [1]: > 90%
B3: 13B2 (VHH)
VHH: B1 VHH with E16G, T58K
notes: C-term myc-His6 tag

- % blocking of Herceptin binding [1]: > 90%
B4: 27D4 (VHH)
VHH: B1 VHH with E16G, S35T, P41S, I48V, N85S, F88S, R101G
notes: C-term myc-His6 tag

- % blocking of Herceptin binding [1]: > 90%
B5: 5F8 (VHH)
VHH: B1 VHH with E16G, M34L
notes: C-term myc-His6 tag

- % blocking of Herceptin binding [1]: > 90%
B6: 15F9 (VHH)
VHH: B1 VHH with E16G, S35T, I48V, A61T, D62G, N85S, F88S, E89D, R101G
notes: C-term myc-His6 tag

- % blocking of Herceptin binding [1]: > 90%
B7: 29H1 (VHH)
VHH: B1 VHH with Q13P, E16G, I48V, D59G, A61T, N85S, F88S, R101G
notes: C-term myc-His6 tag

- % blocking of Herceptin binding [1]: > 90%
B8: 15G1 (VHH)
VHH: B1 VHH with Q13P, E16G, I48V, A61T, N85S, F88S
notes: C-term myc-His6 tag

- % blocking of Herceptin binding [1]: > 90%
B9: 27B1 (VHH)
VHH: B1 VHH with E16G
notes: C-term myc-His6 tag

- % blocking of Herceptin binding [1]: > 90%
B10: 13D8 (VHH)
VHH: B1 VHH with E16G, S35T, P41S, I48V, A61T, N85S, F88S, R101G
notes: C-term myc-His6 tag

- % blocking of Herceptin binding [1]: > 90%
B11: 30E10 (VHH)
VHH: B1 VHH with E1K, Q13P, E16G, S35T, I48V, A61T, N85S, F88S, R101G
notes: C-term myc-His6 tag

- % blocking of Herceptin binding [1]: > 90%
B12: 17E10 (VHH)
VHH: B1 VHH with E16G, S35T, I48V, Y60C, A61T, N85S, F88S, R101G
notes: C-term myc-His6 tag

- % blocking of Herceptin binding [1]: > 90%
B13: 27G2 (VHH)
VHH: B1 VHH with E16G, S35T, A40T, I48V, A61T, N85S, F88S, E89D, R101G, Q116P
notes: C-term myc-His6 tag

- % blocking of Herceptin binding [1]: > 90%
B14: 17G8 (VHH)
VHH: B1 VHH with Q13P, E16G, I48V, D59G, A61T, N85S, F88S, R101G
notes: C-term myc-His6 tag

- % blocking of Herceptin binding [1]: > 90%
B15: 17D8 (VHH)
VHH: B1 VHH with Q13P, E16G, A24V, I48V, A61T, T78M, N85S, F88S
notes: C-term myc-His6 tag

- % blocking of Herceptin binding [1]: > 90%
B16: 17E2 (VHH)
VHH: B1 VHH with Q13P, E16G, A33G, I48V, A61T, N85S, F88S, R101G
notes: C-term myc-His6 tag

- % blocking of Herceptin binding [1]: > 90%
B17: 39C1 (VHH)
VHH: B1 VHH with Q13P, E16G, A33G, I48V, A61T, N85S, F88S, R101G
notes: C-term myc-His6 tag

- % blocking of Herceptin binding [1]: > 90%
B18: 17E7 (VHH)
VHH: B1 VHH with E16G, A40V, I48V, N85S, F88S
notes: C-term myc-His6 tag

- binding result [2]: binds
B19: 118N121_B7_4_OK/1-124 (VHH)
VHH: EVQLVESGGGLEQAGGSLRLSCAASGLTFRSAAMGWFRQGPGKEREFVAAISRDGAATYYTDSVKGRFTISRDNAKNTVFLQMNSLKPEDTAIYYCAADFRLARLRVADDYDYWGQGTQVTVSS
notes: C-term myc-His6 tag

- binding result [2]: binds
B20: 118N121_B2_1_OK/1-130 (VHH)
VHH: EVQLVESGGGLVQAGGSLRLSCAASGFSLDDRAIAWFRQAPGKAREGVSCITPHHGGIIFTRESVKGRFATSSDSAKNTVYLQMHSLKPEDTAVYYCATLRTDYSINWANCQRDSLYGYWGQGTQVTVSS
notes: C-term myc-His6 tag

- % blocking of Herceptin binding [1]: > 90%
B21: 17E3 (VHH)
VHH: EVQLVESGGGLVQAGGSLRLSCVASKMTFMRYTMGWYRQAPGKQRDLVASIDSSGGTNYADSVKGRFTISRDNAKNTVYLEMNSLTPEDTAVYYCNQGWKIVPTDRTGHGTQVTVSS
notes: C-term myc-His6 tag

- binding result [2]: binds
B22: 118N121_A11_1_OK/1-120 (VHH)
VHH: EVQLVESGGGLVQPGGSLRLSCAASGFPFGMYGMRWVRQAPGKGPERVSSINSDGDTTYYADSVKGRFTISRDNDENMLYLQMNSLKPEDTAVYYCATGFSDRSFAVTHKGQGTQVTVSS
notes: C-term myc-His6 tag

- binding result [2]: binds
B23: 118N121_B7_1_OK/1-119 (VHH)
VHH: EMQLVESGGGLVQPGGSLRLSCAASGNIPPINAMAWYRQAPGNERELVAAVTSGGGTNYATSVKGRFIISRDDSKNTVDLQMNSLKPEDTAVYYCNLGGWTRTHPFDYWGQGTQVTVSS
notes: C-term myc-His6 tag

- binding result [2]: binds
B24: 118N121_A10_1_OK/1-131 (VHH)
VHH: EVQLVESGGGLVQAGGSLRLSCAASGFSFADYAIGWFRQAPGKEREGVSCIANSEGTKYYADSAQGRLPISSDNAKKTVYLQMDSLKPEDTAVYYCAALPYTICPVVVKKGAVYYGVDDYWGKGTQVTVSS
notes: C-term myc-His6 tag

- % blocking of Herceptin binding [1]: > 90%
B25: 5G4 (VHH)
VHH: EVQLVESGGGLVQPGGSLTLSCAGSGFIFDDYAMSWVRQAPGKGLEWVSSINWSGSHRNYADSVKGRFTISRDNAKKTLYLQMNSLKSEDTAVYYCATGWQSTTKNQNYWGQGTQVTVSS
notes: C-term myc-His6 tag

- % blocking of Herceptin binding [1]: > 90%
B26: 15G7 (VHH)
VHH: B25 VHH with T19R, G24A, S50A, S56T, A75N, L79V, N108G
notes: C-term myc-His6 tag

- % blocking of Herceptin binding [1]: > 90%
B27: 15B7 (VHH)
VHH: B25 VHH with T19K, G24A, S50A, L79V, K87Q, A97G, N106S, N108G
notes: C-term myc-His6 tag

- % blocking of Herceptin binding [1]: > 90%
B28: 2E2 (VHH)
VHH: EVQLVESGGGLVQPGGSLRLSCVASGFSLDDYGMTWVRQAPGKGLEWVSSINWSGTHTDYADSVKGRFTISRDNAKNTLFLQMNSLTPEDTAVYYCNQGWKIIPTDRRGHGTQVTVSS
notes: C-term myc-His6 tag

- % blocking of Herceptin binding [1]: > 90%
B29: 2H3 (VHH)
VHH: B28 VHH
notes: C-term myc-His6 tag

- % blocking of Herceptin binding [1]: > 90%
B30: 15G8 (VHH)
VHH: B28 VHH with R19K, S54N, D62Y, D90N, I103L, T105A, D106E
notes: C-term myc-His6 tag

- % blocking of Herceptin binding [1]: > 90%
B31: 38C6 (VHH)
VHH: B28 VHH with A24G, G33A, T87S, I103R, D106I, R107P, R108M
notes: C-term myc-His6 tag

- % blocking of Herceptin binding [1]: > 90%
B32: 15D1 (VHH)
VHH: B28 VHH with G33A, T87N, I102V, I103W, R108G, G109T
notes: C-term myc-His6 tag

- % blocking of Herceptin binding [1]: > 90%
B33: 13B10 (VHH)
VHH: B28 VHH with L45F, T87S, I103L, D106N, R108G, G109S
notes: C-term myc-His6 tag

- % blocking of Herceptin binding [1]: > 90%
B34: 2E3 (VHH)
VHH: B28 VHH with T87S, I103L, D106N, R108G, G109S
notes: C-term myc-His6 tag

- % blocking of Herceptin binding [1]: > 90%
B35: 17B8 (VHH)
VHH: B28 VHH with I103L, T105A, D106E
notes: C-term myc-His6 tag

- % blocking of Herceptin binding [1]: > 90%
B36: 17H4 (VHH)
VHH: B28 VHH with D30I, D31N, G33A, Q82H, S85N, T87S, N97G, I103H, T105A, R108G
notes: C-term myc-His6 tag

- % blocking of Herceptin binding [1]: > 90%
B37: 17D2 (VHH)
VHH: B28 VHH with T87R, P88S, I103V, R108G, G109S
notes: C-term myc-His6 tag

- % blocking of Herceptin binding [1]: > 90%
B38: 29H2 (VHH)
VHH: B28 VHH with S85N
notes: C-term myc-His6 tag

- % blocking of Herceptin binding [1]: > 90%
B39: 17H3 (VHH)
VHH: B28 VHH with V5M, T87R, P88S, I103V, R108G
notes: C-term myc-His6 tag

- % blocking of Herceptin binding [1]: > 90%
B40: 17E4 (VHH)
VHH: B28 VHH with T69V, T87S
notes: C-term myc-His6 tag

- % blocking of Herceptin binding [1]: > 90%
B41: 13D2 (VHH)
VHH: B28 VHH with S85N, T87R, P88S, Y95S, I103V, R108G
notes: C-term myc-His6 tag

- % blocking of Herceptin binding [1]: > 90%
B42: 15C11 (VHH)
VHH: B28 VHH with I103L, T105A, D106E, Q113P
notes: C-term myc-His6 tag

- % blocking of Herceptin binding [1]: > 90%
B43: 17A2 (VHH)
VHH: B28 VHH with G33A, T87S, Q98K, I102V, I103W, R108G, G109T
notes: C-term myc-His6 tag

- % blocking of Herceptin binding [1]: > 90%
B44: 13D11 (VHH)
VHH: B28 VHH with Q13H, A24G, Q39R, T87N, N97G, I103V, D106N, R107P
notes: C-term myc-His6 tag

- % blocking of Herceptin binding [1]: > 90%
B45: 15C5 (VHH)
VHH: B28 VHH with R19K, S54N, G55V, D62Y
notes: C-term myc-His6 tag

- % blocking of Herceptin binding [1]: > 90%
B46: 27G8 (VHH)
VHH: B28 VHH with I103L, T105A, D106E
notes: C-term myc-His6 tag
